± gives the uncertainty stated by the source.
B1: POU domain, class 3, transcription factor 4, residues 280 to 335; numbered along this chain, P49335 (parent)
chain: KKRTSIEVSVKGVLETHFLKCPKPAAQEISSLADSLQLEKEVVRVWFCNRRQKEKR

Variants of: B1
Experiment: abundance fitness (aPCA) (normalised: wild type 0, dead -1); higher = more abundant; growth selection in yeast, the domain comes from the species named
Conditions: Homo sapiens

Abundance fitness: each site, then its substitutions
T16: Q 0.044 ± 0.2, W -0.347 ± 0.18, E 0.368 ± 0.16, S 0.217 ± 0.13, L -0.304 ± 0.14, K 0.572 ± 0.15, I -0.428 ± 0.27, N -0.223 ± 0.29, A 0.197 ± 0.14, M -0.214 ± 0.18, V -0.504 ± 0.13, P -0.839 ± 0.26, G 0.041 ± 0.13, Y -0.306 ± 0.42, D 0.157 ± 0.26, R 0.059 ± 0.13, C -0.283 ± 0.26
V10: S -0.587 ± 0.21, M 0.058 ± 0.38, T -0.21 ± 0.3, E 0.262 ± 0.28, I 0.08 ± 0.2, H -0.133 ± 0.26, Y -0.503 ± 0.36, A 0.393 ± 0.18, N -0.279 ± 0.31, K -0.12 ± 0.36, L -0.472 ± 0.26, G -0.751 ± 0.21, Q -0.193 ± 0.23, C -0.486 ± 0.33, R -0.731 ± 0.24
S30: N -0.196 ± 0.2, Q -0.163 ± 0.2, F -0.332 ± 0.2, L -0.536 ± 0.16, K -0.003 ± 0.18, M -0.262 ± 0.19, T -0.118 ± 0.17, V -0.058 ± 0.11, H -0.706 ± 0.24, I -0.148 ± 0.3, D 0.08 ± 0.14, R -0.185 ± 0.14, E 0.215 ± 0.15, P -0.652 ± 0.24, G -0.209 ± 0.13, C -0.396 ± 0.27
P24: G -0.842 ± 0.4, Y -1.07 ± 0.43, H -0.688 ± 0.47, L -0.753 ± 0.26, W -0.514 ± 0.27, R -0.405 ± 0.22
I29: S -0.762 ± 0.29
F18: Q -1.16 ± 0.39, P -0.992 ± 0.29, D -0.814 ± 0.27, E -0.851 ± 0.17, V -0.56 ± 0.11, H -0.251 ± 0.22, M -0.893 ± 0.22, C -0.745 ± 0.21, Y -0.195 ± 0.18, S -0.719 ± 0.14, A -0.891 ± 0.14, L -1.03 ± 0.16, W -0.485 ± 0.13, G -0.741 ± 0.11, N -0.859 ± 0.27, R -0.812 ± 0.12, K -0.461 ± 0.21, I -0.851 ± 0.26, T -0.732 ± 0.18
L14: H -0.983 ± 0.27, I -0.607 ± 0.17, V -0.788 ± 0.14, D -0.825 ± 0.24, K -0.655 ± 0.22, Y -1.08 ± 0.27, A -0.955 ± 0.15, T -0.537 ± 0.13, F -0.887 ± 0.25, R -0.792 ± 0.1, C -0.563 ± 0.15, N -0.564 ± 0.23, Q -0.953 ± 0.2, S -0.693 ± 0.11, G -0.891 ± 0.12, M -0.623 ± 0.17
H17: E -0.172 ± 0.16, I -0.542 ± 0.31, Y 0.386 ± 0.18, P -0.957 ± 0.32, M -0.019 ± 0.15, R -0.845 ± 0.14, V -0.017 ± 0.12, N -0.458 ± 0.37, L -0.401 ± 0.12, A 0.085 ± 0.13, D -1 ± 0.34, T -0.464 ± 0.23, W -0.159 ± 0.15, G -0.662 ± 0.16, S -0.262 ± 0.16, C -0.497 ± 0.2
K20: L -0.446 ± 0.12, P -0.805 ± 0.22, I -0.574 ± 0.2, C -0.735 ± 0.18, N -0.475 ± 0.18, Y -0.788 ± 0.18, V -0.429 ± 0.12, W -0.832 ± 0.18, T -0.129 ± 0.16, Q -0.578 ± 0.25, A -0.339 ± 0.15, S -0.479 ± 0.15, F -0.344 ± 0.15, M -0.812 ± 0.26, G -0.69 ± 0.12, H -0.693 ± 0.26, R -0.386 ± 0.12
P22: T -0.796 ± 0.23, F -0.732 ± 0.23, Y -0.949 ± 0.33, D -0.363 ± 0.23, M -0.553 ± 0.21, Q 0.208 ± 0.19, V -0.469 ± 0.13, C -0.502 ± 0.27, G -0.909 ± 0.19, R -0.37 ± 0.15, L -0.783 ± 0.15, I -0.606 ± 0.28, E -0.702 ± 0.21, S -0.427 ± 0.13, H -0.513 ± 0.26, K -0.315 ± 0.21, W -0.166 ± 0.22
V13: G -0.662 ± 0.18, I -0.235 ± 0.32, Q 0.205 ± 0.35, T -0.502 ± 0.42, H -0.407 ± 0.47, F -0.315 ± 0.4, M 0.18 ± 0.34, D -0.518 ± 0.43, W -0.745 ± 0.27, S -0.038 ± 0.25, C -0.454 ± 0.3, E -0.182 ± 0.26, R -0.215 ± 0.14, L -0.02 ± 0.26, Y -0.354 ± 0.48, A -0.082 ± 0.17
E15: A -0.539 ± 0.16, H -0.873 ± 0.31, N -0.885 ± 0.26, D -0.998 ± 0.41, Q -0.789 ± 0.31, R -0.985 ± 0.18, G -0.881 ± 0.17, Y -1.23 ± 0.38, W -1.04 ± 0.24, T -0.82 ± 0.22, V -0.756 ± 0.16, S -0.845 ± 0.17, F -0.681 ± 0.21, L -0.645 ± 0.13, P -0.659 ± 0.21, K -0.728 ± 0.21, I -0.368 ± 0.21, C -0.947 ± 0.3
E28: A -0.657 ± 0.14, C -0.569 ± 0.19, Y -0.382 ± 0.21, P -0.352 ± 0.22, N -0.123 ± 0.28, H -0.63 ± 0.24, M -0.355 ± 0.2, F -0.732 ± 0.17, W -0.484 ± 0.31, G -0.886 ± 0.16, S -0.692 ± 0.14, T -0.411 ± 0.17, I -0.47 ± 0.19, L -0.357 ± 0.13, K -0.713 ± 0.29, V -0.398 ± 0.11, Q -0.432 ± 0.19, D -0.3 ± 0.18
S31: F -0.059 ± 0.16, N 0.182 ± 0.22, L -0.114 ± 0.12, G -0.398 ± 0.13, R 0.29 ± 0.13, E -0.058 ± 0.22, C -0.414 ± 0.32, A 0.006 ± 0.15, V 0.013 ± 0.17, T 0.035 ± 0.15, K 0.022 ± 0.18, P -0.913 ± 0.25, M 0.096 ± 0.15, Q -0.031 ± 0.16, W -0.467 ± 0.2, I 0.004 ± 0.18, H 0.219 ± 0.2
A26: C -0.211 ± 0.18, G -0.37 ± 0.12, L -0.07 ± 0.11, F -0.451 ± 0.26, W -0.05 ± 0.12, K -0.415 ± 0.21, V -0.254 ± 0.13, H -0.237 ± 0.23, P 0.149 ± 0.19, N -0.043 ± 0.22, Y -0.254 ± 0.23, E 0.385 ± 0.15, T -0.017 ± 0.17, S -0.095 ± 0.14, I -0.168 ± 0.21, D 0.396 ± 0.2, M 0.108 ± 0.18
A25: C 0.18 ± 0.11, W -0.764 ± 0.17, S 0.457 ± 0.1, T 0.495 ± 0.14, H -0.096 ± 0.27, K -0.015 ± 0.33, M -0.073 ± 0.19, D 0.545 ± 0.18, V -0.476 ± 0.14, Q 0.045 ± 0.16, L -0.262 ± 0.11, R -0.088 ± 0.096, I -0.297 ± 0.22, G 0.313 ± 0.1, F -0.769 ± 0.21, P -0.31 ± 0.2
K23: T 0.237 ± 0.15, F 0.137 ± 0.17, G -0.664 ± 0.14, E 0.142 ± 0.11, Q 0.064 ± 0.18, I -0.369 ± 0.25, H 0.186 ± 0.22, P -0.697 ± 0.27, D 0.263 ± 0.15, Y 0.396 ± 0.19, W 0.037 ± 0.18, M 0.149 ± 0.18, N 0.559 ± 0.18, R 0.118 ± 0.12, S 0.17 ± 0.11, V -0.225 ± 0.11, C 0.218 ± 0.16
L32: C -0.633 ± 0.25, A -0.247 ± 0.21, E -0.631 ± 0.36
K11: R -0.076 ± 0.2, G -0.645 ± 0.35, Q 0.14 ± 0.43, A 0.778 ± 0.47, M 0.17 ± 0.44, D 0.119 ± 0.41, H -0.207 ± 0.49, S -0.498 ± 0.3, V -0.117 ± 0.22
Q27: K -0.157 ± 0.17, T -0.335 ± 0.15, M -0.344 ± 0.21, D 0.147 ± 0.19, R -0.054 ± 0.12, V -0.434 ± 0.12, C -0.16 ± 0.18, P -0.761 ± 0.24, H -0.074 ± 0.26, G -0.172 ± 0.1, W -0.295 ± 0.15, A 0.078 ± 0.12
G12: K -0.009 ± 0.35, L 0.004 ± 0.24, S 0.298 ± 0.2, V -0.034 ± 0.28, R -0.219 ± 0.36, Q 0.103 ± 0.29, D 0.288 ± 0.44, A -0.177 ± 0.41
L19: M 0.039 ± 0.2, Q -0.045 ± 0.22, R -0.236 ± 0.1, K -0.461 ± 0.23, I -0.441 ± 0.32, A -0.187 ± 0.14, N -0.343 ± 0.24, V -0.437 ± 0.13, P -0.774 ± 0.26, E -0.391 ± 0.18, S -0.191 ± 0.14, D -0.363 ± 0.28, C -0.385 ± 0.16, G -0.504 ± 0.12, Y -0.518 ± 0.29, F -0.941 ± 0.3, W -0.624 ± 0.2, T -0.019 ± 0.19
C21: S -0.072 ± 0.12, H -0.533 ± 0.2, M -0.723 ± 0.21, E -0.546 ± 0.28, R -0.742 ± 0.15, N 0.31 ± 0.19, G -0.724 ± 0.15, I -0.58 ± 0.21, W -0.846 ± 0.22, Y -0.898 ± 0.25, A -0.756 ± 0.18, T -0.336 ± 0.17, K -0.725 ± 0.33, D 0.059 ± 0.21, L -0.419 ± 0.12, Q 0.265 ± 0.2, V -0.781 ± 0.16, P -0.483 ± 0.21
S9: P -0.335 ± 0.48, V -0.173 ± 0.15, L -0.24 ± 0.35, T 0.008 ± 0.24, N 0.52 ± 0.28, M -0.392 ± 0.25, K 0.237 ± 0.33
